{"source": "the domain aggregation screens of Martell et al. (2025)"}
{"assay": "soluble fraction after stress (log2 fold change); higher = more stays soluble; pooled small domains, quantitative proteomics", "settings": "stress: pH 4", "procedure,_shortened": "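Values are log2 fold changes, and higher ones mean more of the domain stayed soluble. Each fold change reflects the soluble amount of a domain after acid stress and is taken as a measure of aggregation propensity. The stress was pH 4, applied to pooled custom libraries of small protein domains analysed by high-throughput quantitative proteomics.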"}
{"sequence": "HMVSTDPVHLFNLGTANRRAGRASEAITSYRKFMEAAPQHPQVPEARAYIHDMEVLLQERQKSEQAASQLS", "soluble fraction (log2)": -0.0261}
{"sequence": "HMVSTSVTVTGDLNVRADSRADSDLVGALIPGQTVTRLAVLDNGWSKIRFDDGAGTVVEGYVLSEYLQADG", "soluble fraction (log2)": 0.131}
{"sequence": "HMVSVEINTVERDETFRKMFTSGWKPENRIQALAVEQAKKNGLGRMSEVAGLASFRGIWKQATEQVALEA", "soluble fraction (log2)": -0.0443}
{"sequence": "HMVSVLDHIVGIGAKRRQSLWNHFGTIDKIKAASIDELLKAPGMNRPSAEAVYYFFEAQRQLRGK", "soluble fraction (log2)": 0.0106}
{"sequence": "HMVTEKNALTIEIEDLTKRFGNQRESLLPILQEVQLKHGHISDFAQQEIARLLDIHPVEVYGVVTFFSFLS", "soluble fraction (log2)": -2.43}
{"sequence": "HMVTGSIYERKGIYYAIVSYYVDGRRKQKSVSTGLSVKGNKRRALEFLENLKRTYETKESMENMD", "soluble fraction (log2)": "≥ 0.43"}
{"sequence": "HMVTIEEMMDRLLTRVQRAVNMSFSEFSGEAKEKVEVIVSFLALLELVKQGAVDVLQHENFSDIRIENT", "soluble fraction (log2)": -0.841}
{"sequence": "HMVTKQKKLVLTIIERSHGHLSAEEIFFRAREEMPNIALGTVYRNLNSLTEEGIVRRITLPGTSDRFDT", "soluble fraction (log2)": -0.506}
{"sequence": "HMVTKTTYAYERLKREIMDGTLGQGEKLVVNAISQRYQVSPMPIREALLKLEQEGLVQSAPHRGAWVHK", "soluble fraction (log2)": 0.0193}
{"sequence": "HMVTNELFGTRLRAFRKEKGLTIEQLAERVGLSPNYLGDIERGKKLPSMATFIRLVNELDISADEL", "soluble fraction (log2)": 0.174}
{"sequence": "HMVTQVDYGTFLTRIDEGKVKSVEIQDNQIAFTAIDEAGKENIYVTGKVNDPELVDRLLAADIEDFSQVIP", "soluble fraction (log2)": -1.29}
{"sequence": "HMVTTTEAAKMLLVNAGHDVIKDGLTGASWASNTMKLADADGLLASVATKPNDALPRQYAAQMIYN", "soluble fraction (log2)": 0.265}
{"sequence": "HMVVANTAIKSELQNIVANENKQAPLSDQKIVDQLKQAGFDISRRTVVKYRDALGIPTSRNRKR", "soluble fraction (log2)": 0.112}
{"sequence": "HMVVEGMQFDRGYLSQYMVTDNEKMVADLENPYILITDKKISNIQEILPLLESILQSSRPLLIIADD", "soluble fraction (log2)": -0.573}
{"sequence": "HMVVGYRYVTNVANAVNFRQKPSASSTIITTIPYGTRIGYVEDANSEYARVKYDNMYGYVAKFYLSNYSPP", "soluble fraction (log2)": 0.276}
{"sequence": "HMVVLNQEQIKFIDHYLQVSKVRYVDVRSELTDHIATAVELKMQDEALDFYEAFKAFIAVNKSQLLQRN", "soluble fraction (log2)": -0.975}
{"sequence": "HMVVNERIKKLRRSLDLTQQEFADRIGVKRNTIANYEIGRNEPIDSVLELIVREFGVSKQWLLDGTGEMF", "soluble fraction (log2)": 0.0586}
{"sequence": "HMVVPRSFKYEVLAHGGWAGNAQRYQTKEEALHAGLALSRRWTAVEDYRAVPSDDLPNQPAL", "soluble fraction (log2)": 0.127}
{"sequence": "HMVVPSNPDELKGSFSLAEVASGYGLEVAAILEKAGWPADTDPNVKMRDAANAIGRDSTDIRNAVKALLKS", "soluble fraction (log2)": -0.468}
{"sequence": "HMVVVPPPATPKPGDVTGDNKINGYDLSILLSNWKRPGATLAQGDLNKDGVVNGLDLSIMLLNWG", "soluble fraction (log2)": 0.0857}
{"sequence": "HMVVYDAELLLNINPGMSYEEVKEMLGDPGMIIAGNDAENSVYRWSTGGISFMGRFENGALIRKSIISP", "soluble fraction (log2)": -0.916}
{"sequence": "HMVWNVEQIKRAVDQLPDGYRVVFTLYLFEGYDHREIADILGISEGGSKSQFNRAKSKLKEILTAMS", "soluble fraction (log2)": -1.2}
{"sequence": "HMVWTAGEVVERIRERVGHPATIRELMQVLTIPPEDRHRFRRRIMQLVEAGELIRIRGNRYGLAD", "soluble fraction (log2)": 0.124}
{"sequence": "HMVYNGYYAKSFNGYVVILNGDEKTVYEYTQIPIHLLPEDIRSSVMSGYYLENETDLYNFLENYS", "soluble fraction (log2)": -0.211}
{"sequence": "HMWAVDFVLLDKDDQRIGNAVAYRDDRTKGMDEEVYRTVPEEELYASTGIQKQIFNSIYQLMAWKK", "soluble fraction (log2)": -1.25}
{"sequence": "HMWDRFGELDSAEEINRIAAAELREGDIDALKVLAEENGLDKDDVEDYIDRLIDELTTPELAAIGKLDV", "soluble fraction (log2)": -0.0336}
{"sequence": "HMWKQISSEAELLPAVRSVIQANPGEAEKLRNGEMAPLEFLTGLVMKKTNGMAVPQIVKTLIKKELKI", "soluble fraction (log2)": 0.0805}
{"sequence": "HMWKSEAGKKIIESLAQKYNKSNAQIILRWHIQMGYIVIPGARSENHIKENINIFDFKLTNEEINNILKLN", "soluble fraction (log2)": -0.124}
{"sequence": "HMWMTAQDFRNSSLPWSATTSYNEGQSVRVVDGSNTYYYIAIVKTQPGQSPTTHPTSWREVDA", "soluble fraction (log2)": 0.311}
{"sequence": "HMWNLPDPVVRPEGNVTVYENFKNTVEVLNREADLVLKFLQNEFGTSANIDDTGRARLTGSFSTDRVSSVI", "soluble fraction (log2)": -0.529}
{"sequence": "HMWSNTAVIDRIRQLHEEGQPISSQSVQVNHKSLYMAAIKRFRGWKRAVEAAGIDYRQIRLR", "soluble fraction (log2)": 0.404}
{"sequence": "HMWWTPIILRDALFGVQRFEDFQKNLDVSRATLSSRLTRLVDEGLMEKVEYQQHPVRHEYVLTEKGR", "soluble fraction (log2)": 0.194}
{"sequence": "HMYAGTWTTESGQWKYRQDDGTYAKGWLQDTDGRWYYFDANGRMLSNTATPDGYQVGEDGAWVNH", "soluble fraction (log2)": -0.651}
{"sequence": "HMYAMTAEDWIVSGNRKYINDDLQGAIADYTKAIEIDPNYAAIYLVRGKAKYELKNYQGAIEDYTKAIE", "soluble fraction (log2)": -1.48}
{"sequence": "HMYAPKIETIQVPQDKIREVIGTGGKVIREIVETTGAKIDIGDTGLIKVASSDGEAIRAALDWINSIVAE", "soluble fraction (log2)": -0.758}
{"sequence": "HMYATQLLQLEEMGFFDRAENIRALRATNGNVNAAVERL", "soluble fraction (log2)": -0.114}
{"sequence": "HMYDASELNKALEEAKKLDLNNYTEESSEALKNAISKAEEALLSKDKETINSALEELNKAMDSL", "soluble fraction (log2)": -0.615}
{"sequence": "HMYDEAAIRKAVMTFVTDNRDERLDLAKISAVLTSKFGNINFDELGYKRFSSFIDSFPELRRNNTFVSLR", "soluble fraction (log2)": -0.193}
{"sequence": "HMYDFGVILQKLRKEKGFTQEQLARLIHKESSIISRYEKGLQNPTFETVKEFAAIFNVSMDYLAG", "soluble fraction (log2)": -0.255}
{"sequence": "HMYEGNEFSSTGMFREDILAITAVHPMREDAVTELLARSNESEETLEMMIDEELLRRVAYGNHNYYMRRFR", "soluble fraction (log2)": -0.388}
{"sequence": "HMYEHLKALRESLGMTQAEFGESVGVAKSTYNNYEIGARDPKSDFWIAVAQRYGVTIDYLMGFSDDPKKT", "soluble fraction (log2)": 0.253}
{"sequence": "HMYELSDTEWKIIEQVGLGASNKEIAASLHFSEGTIRNYLSVILDKLSLRDRTQLAILYVKMN", "soluble fraction (log2)": -0.122}
{"sequence": "HMYEPPTEDEKRVLSLLATRESIVRSDVDRLLGVSQSTANRILKQMIEKYLISQEGTGKNTKYIK", "soluble fraction (log2)": -0.113}
{"sequence": "HMYESAMSDLHARIMSSDDPHGEIYKMLTQSGPEAKYIQDMYNETSIDRGLHPDDDFEDIIDAMVAELDD", "soluble fraction (log2)": -1.24}
{"sequence": "HMYEVVPNMKGLSYEQAATALRTAGLEPELSDSIYDDKTRPGTVLEQSPRANTKVKPGRTVYLTVNAF", "soluble fraction (log2)": 0.105}
{"sequence": "HMYFFNTFTQRLFDNPELTQEEAIRQMYPGISGVQTAEKLQENFMADVYIQAAIRQEIVVQLIR", "soluble fraction (log2)": 0.22}
{"sequence": "HMYGSLGEYELAAVQWIYGKGKITTRELSSLIGKGLTLSSKTLRGLAAKGILEWHGNSKNDPSQFYSLP", "soluble fraction (log2)": -0.196}
{"sequence": "HMYHADLIGLEARSTAGDKLGEVNAVYNFGAGDLIEIKMTDGNLEMLPFTRQYVPTVSIKDGFIIVQM", "soluble fraction (log2)": -1.08}
{"sequence": "HMYHIYPVADNDTPKLSADRLEYSLSNALLTNKLLNIDEIKKIYNDVILDKDEDGTLELSFKS", "soluble fraction (log2)": 0.167}
{"sequence": "HMYIDANTALLAKRIQAKNGFLPLSDKSTAEEIYAEFGISKKAFKKALGALYKERLVRIGDEGVVWV", "soluble fraction (log2)": 0.0176}
{"sequence": "HMYINVQNARTIASFRSSLWRMHRDFTNQGYITADGLKTFLEMGKLYEDAGGNDIYHSKLLPEITALEIKY", "soluble fraction (log2)": -0.421}
{"sequence": "HMYKDVVVPNTVGDSEEKAYQTLSALGLVVNITYDEDASKSDRVVTSQNPTNKTIKEGESVNIVVNKQP", "soluble fraction (log2)": -0.242}
{"sequence": "HMYKIDFAEGDRVIIKGGAFSGLRATVVSLHPEKGMAKIKVYMFGDRETLVDIEVSQLEKDK", "soluble fraction (log2)": 0.113}
{"sequence": "HMYKTKVDIAYDMLMERITEGVYKPGEKLVITHISKELGISDIPVREAIRRLESEGYVKILPNQGAIVYD", "soluble fraction (log2)": -0.185}
{"sequence": "HMYLGRKATLLSSISGEKMGNAEVLADGNLMSIYVKSLTGEPLSYGSTVLIIKHSEDQNFYLVQN", "soluble fraction (log2)": -0.65}
{"sequence": "HMYLQKGISNGKVYLSIVHGYRDPVTKKVRRKTIRSLGYLEDLEKQYADPIKHFEAVVAKMNEEEALE", "soluble fraction (log2)": 0.0302}
{"sequence": "HMYLSNPTYRGDSLVDALTQIGVDASFASRRDLARKNGIENYTGSAKQNLELLQLLREGRLR", "soluble fraction (log2)": -0.173}
{"sequence": "HMYLYADIYKKLEEKIKNMEVGEKLPSERAMVQEYGVSRNVLREALVLLSERGLIEIRPGKGSYVTNQQ", "soluble fraction (log2)": -0.177}
{"sequence": "HMYNKKAYVNTNSDFLNVRSEASTESSVVDKLARGTEVNIVGNIQNGFYPIVLNEKNAWVSSDWISFEKPT", "soluble fraction (log2)": "≥ 0.43"}
{"sequence": "HMYNNDEIEKIQTMYNAIYQLNDIEKALIMLFLEDKSYKEIAEIMGISEGNARIKMMRTKDKLKNLISKN", "soluble fraction (log2)": -0.608}
{"sequence": "HMYNNGYVNSDRVNFRKGASTNSDIYKVLDKNTSVTILDYEGDWSKVKINDTVGYVYTKYITAG", "soluble fraction (log2)": -0.0882}
{"sequence": "HMYNTDAMGVRIGELRRAKGLTQEAFAKTLGISAQAVSKWETGLGFPDISLLPMIAETLGTKIETLFGAE", "soluble fraction (log2)": -0.272}
{"sequence": "HMYPATGTVVTAGGHLNMRSEPDRSGAILARIPNGTALTLTGKNGDWYAATYAGRSGYVSAQYISLS", "soluble fraction (log2)": -0.13}
{"sequence": "HMYPDNSGDIQQLAQNIFRQENVSVDRDGLALISSRLGSDHAATRSEIEKLALLAGPGGTLTFETISEVLG", "soluble fraction (log2)": -0.942}
{"sequence": "HMYPEDMMSLMRRALRLINHLESNRKDRHNSRQLELTESKIRRLARYYKGRGLIETEWAYKRDQLRLLV", "soluble fraction (log2)": -0.184}
{"sequence": "HMYPIYDYISNMYLGKHLNAGMSLEEARGIMDEMLEKLLFDVPEEYHIDRDHFYEYLKKYYTERFSA", "soluble fraction (log2)": -1.7}
{"sequence": "HMYPQLIGFKVIDEDKGEVGVVKEVSESMHQILLTVMKGKKEILIPLAEEFITKVNRHKKELFMVLPDG", "soluble fraction (log2)": -0.383}
{"sequence": "HMYRLDVEISDEIKRDIDEETLSEIKGIIAEDPRPSYQNDETRIYRFTFAGREISFRVKDRTATVTEIL", "soluble fraction (log2)": -0.736}
{"sequence": "HMYRPLYQQVYDFLVKQIAAGEWGPGESLPSEQALAGRLNVSQGTVRKALDALAADSLIDRRQGKGTYVAE", "soluble fraction (log2)": 0.32}
